Results: patent KR20230108156A (dated 2023)

Tests used:
[1] = molecular target: T1, CD40L in lysates of Jurkat cells and HeLaS3 cells (32 ~ 39 kDa band) (human, UniProt P29965 1-261); assay: western blot of Jurkat and HeLaS3 lysates, reducing and non-reducing, 14D6 0.5 μg/ml
T1 construct: Denatured protein on a PVDF membrane
T1 sequence (looked up): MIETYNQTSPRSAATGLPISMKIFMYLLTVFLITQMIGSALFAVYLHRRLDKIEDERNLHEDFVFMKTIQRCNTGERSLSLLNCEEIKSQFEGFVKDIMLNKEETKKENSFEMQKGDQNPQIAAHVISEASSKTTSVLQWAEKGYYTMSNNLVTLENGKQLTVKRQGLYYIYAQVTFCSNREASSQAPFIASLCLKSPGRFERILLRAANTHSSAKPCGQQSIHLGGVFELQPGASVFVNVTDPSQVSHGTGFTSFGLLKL

[2] = molecular target: CD40L on CD40L 표면발현 CHO 세포 (CHO cells expressing CD40L on the surface, ATCC) (UniProt P29965); assay: cell-based or functional assay
[3] = molecular target: 재조합 인간 CD40L 단백질 (recombinant human CD40L protein, Sino biological, Accession#: NP_000065.1, Cat: 10239-H08E) (human) (UniProt P29965); assay: cell-based or functional assay
[4] = molecular target: 재조합 인간 CD40L 단백질 (recombinant human CD40L protein, Sino biological, Accession#: NP_000065.1, Cat: 10239-H08E) (human) (UniProt P29965); assay: ELISA, plate coated with recombinant human CD40L 100 ng/well, 14D6 two-fold dilutions from 1000 ng/ml, anti-mouse IgG-HRP
[5] = molecular target: CD40L on CD40L 표면발현 CHO 세포 (CHO cells expressing CD40L on the surface, ATCC) (UniProt P29965); assay: flow cytometry on CD40L CHO cells, 0.01-0.5 μg/test
[6] = molecular target: CD40L-hFc 단백질 (Sino biological, Accession#: NP_000065.1, Cat: 10239-H01H) (human) (UniProt P29965); assay: competition, flow cytometry: 14D6 pre-mixed with CD40L-hFc (2 μg), binding to CD40 on Bjab cells read
[7] = molecular target: T2, CD40L induced on T cells of human PBMC stimulated with PMA and ionomycin (human, UniProt P29965 1-261); assay: flow cytometry on PMA/ionomycin-stimulated human PBMC, 0.1 μg, CD3-APC gate, anti-mouse Ig-FITC
T2 construct: whole, on cells
T2 sequence (looked up): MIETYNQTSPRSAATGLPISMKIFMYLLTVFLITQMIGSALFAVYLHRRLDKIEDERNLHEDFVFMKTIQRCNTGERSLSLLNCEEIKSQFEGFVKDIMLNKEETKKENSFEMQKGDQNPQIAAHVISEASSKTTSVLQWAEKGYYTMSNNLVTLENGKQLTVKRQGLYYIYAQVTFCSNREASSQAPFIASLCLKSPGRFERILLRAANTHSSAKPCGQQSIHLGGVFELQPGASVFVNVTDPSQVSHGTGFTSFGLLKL

[8] = molecular target: T3, CD40 on CD40 표면발현 CHO 세포 (CHO cells expressing CD40 on the surface, ATCC) (UniProt P25942 21-277, limits assumed); assay: flow cytometry on CD40 CHO cells, goat anti-mouse Ig-FITC
T3 construct: whole, on cells; also called CD40 CHO 세포
T3 sequence (P25942 21-277 limits assumed): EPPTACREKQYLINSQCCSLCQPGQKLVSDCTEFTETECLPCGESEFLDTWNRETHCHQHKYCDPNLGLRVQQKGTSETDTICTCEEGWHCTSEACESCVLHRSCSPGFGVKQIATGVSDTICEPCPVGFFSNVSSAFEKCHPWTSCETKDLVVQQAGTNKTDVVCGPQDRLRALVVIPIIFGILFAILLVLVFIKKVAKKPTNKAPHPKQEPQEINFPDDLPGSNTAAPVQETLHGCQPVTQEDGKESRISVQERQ

B1: 14D6-52-5 단일클론항체 (14D6 단클론항체, mouse) (antibody, V domains shown)
VH: QVQLQQSGAELVKPGASVKLSCKASGYTFTRYYMFWVKQRPGQGLEWIGEINPTNGDTNFNEEFKSKATLTVDKSSSTAYMQLSSLTSEDSAVYYCTRPLGSRDAMDYWGPGTSVTVSS
VL: DIVLTQSPASLAVSLGQRATISCRASQSVSSSRYSYMHWYQQKPGQPPKLLIKYASSLESGVPARFSGSGSGTDFTLNIHPVEGEDTATYYCQHSWELPWTFGGGTKLEIK
notes: Mouse monoclonal antibody from a hybridoma (Balb/c mouse immunised with recombinant human CD40L); also called 14D6 마우스항체; Mouse 14D6
- binding result [1]: binds
- ICAM-1 expression on Ramos B cells co-cultured with CD40L CHO cells (flow cytometry) [2]: > 0.5 μg/test
- antibody concentration for complete blocking of SEAP OD 655nm (HEK-Blue CD40L cells), CD40L 12.5ng/ml [3]: > 50 ng/mL
- antibody concentration for complete blocking of SEAP OD 655nm (HEK-Blue CD40L cells), CD40L printed as 12.5ng/ml a second time (25ng/ml probably meant) [3]: > 500 ng/mL
- concentration at which binding is saturated [4]: > 100 ng/mL
- amount at which binding is saturated [5]: > 0.1 µg
- amount at which blocking equals the negative control [6]: > 0.1 µg
- concentration at which binding is saturated [6]: > 0.1 μg/50μl
- binding result [7]: binds
- binding result [8]: no binding (tested: 0.05μg/test)
